Experimental data reported in US12673985B2, “Method for the treatment or prophylaxis of cancer by targeting the extracellular portion of keratin 14 (KRT14) residing on cancer cells” (Hudson Institute of Medical Research, priority 2019, dated 2026).
Entries after “also recorded” stand apart in the source; their conditions may differ.

Key:
[1] = tested on: NCI-H1573 lung adenocarcinoma; test: In vitro wound repair assay; assay type: cell-based; settings: mAb 1 μg/ml; 16 hrs
Experimental: (§1) In vitro wound repair assay. Ovarian cancer cells (or other cancer cell lines—BT16, NCI-H1573, AN3CA, SW620 and MDA-MB-468) were grown in complete medium to confluency in a 12-well plate, then serum-starved overnight to synchronize at G0. The following day cell culture medium was removed, and cell monolayers were wounded by scraping with a pipette tip attached to suction. Non-adherent cells were removed by gentle washes with PBS, and complete growth medium with or without mAb AN-17 (1 μg/ml) or commercial KRT14 polyclonal antibody (1 μg/ml) was replaced. The wound area was imaged under a phase microscope (Leica) at regular intervals ranging from 0-72 h. Wound closure was measured in image series using AnalySIS LS Research Software (Olympus) to determine the area of the wound on each day. Experiments were repeated in triplicate with at least six wound areas observed per growth condition.
(§2) In vitro wound repair assays were conducted on the following cancer cell lines: BT16 atypical teratoid rhabdoid (brain) carcinoma, NCI-H1573 lung adenocarcinoma, SJ-GBM2 primary glioblastoma multiforme, AN3CA endometrial carcinoma, SW620 colorectal carcinoma and MDA-MB-468 breast carcinoma. Cells were grown in complete medium to confluency in a 12-well plate, and subsequently serum-starved overnight to synchronize at G0. The following day, cell culture medium was removed and the cell monolayers were wounded by scraping with a pipette tip attached to suction. Non-adherent cells were removed by gentle washes with phosphate buffered saline (PBS) and complete growth medium was added to each well, in either the absence or presence of mAb AN-17 (at 1 μg/ml). The wound area was imaged every hour for 0-24 hours. Wound closure was measured in image series using AnalySIS LS Research Software (Olympus) to determine the area of the wound on each day. Experiments were repeated in triplicate with at least six wound areas observed per growth condition.

[2] = tested on: MDA-MB-468 breast carcinoma; test: In vitro wound repair assay; assay type: cell-based; settings: mAb 1 μg/ml; 16 hrs
Experimental: as §1, §2

[3] = tested on: BT16 atypical teratoid rhabdoid (brain) carcinoma; test: In vitro wound repair assay; assay type: cell-based; settings: mAb 1 μg/ml; 16 hrs
Experimental: as §1, §2

[4] = tested on: 9,184 individual recombinant human proteins; test: ProtoArray Human Protein Microarrays v5.0 cross-reactivity profiling; assay type: binding; settings: mAb diluted 1:500
Experimental: Proteomic profiling of mAb AN-17 antibody reactivity was performed using Invitrogen™ ProtoArray™ Human Protein Microarrays v5.0 (ThermoFisher Scientific, Waltham MA), comprising 9,184 individual recombinant human proteins spotted in duplicate. All procedures were carried out as previously described (PMID: 29141850; Wilson et al. Cancer Epidemiol Biomarkers Prev. 2018; 27(2):183-192). Arrays were probed using mAb AN-17 diluted 1:500 in wash buffer. Fluorescent detection antibody against IgG heavy and light chains was from Abcam (#ab150119 Goat Anti-Mouse IgG H&L Alexa Fluor® 647, preadsorbed) diluted to […] in wash buffer prior to use. A single array incubated with detection antibody alone was used as a control for non-specific antibody binding.
Array imaging was performed using a Fuji FLA5100 multi wavelength scanner as described (PMID: 29141850; Wilson et al. Cancer Epidemiol Biomarkers Prev. 2018; 27(2):183-192), using a 635 nm excitation laser and dual band pass Cy3/Cy5 filter. Images were acquired at […], with PMT set at 1000V. Array alignment, feature extraction and data normalization were performed as previously described (PMID: 29141850; Wilson et al. Cancer Epidemiol Biomarkers Prev. 2018; 27(2):183-192). Array co-ordinates were obtained from the manufacturer-provided downloadable .GAL files (ThermoFisher Scientific).

[5] = tested on: SJ-GBM2 primary glioblastoma multiforme; test: In vitro wound repair assay; assay type: cell-based; settings: mAb 1 μg/ml; 16 hrs
Experimental: as §2

ID8 ovarian tumour = settings: mouse, in vivo
Experimental: Control mice received vehicle (PBS) alone. At time points from 4 hr to 7 days post-injection, mice were culled and selected tissues (liver, kidney, spleen, intestine, ovary+fallopian tube/ovarian tumour (as relevant), brain, heart, lung) were harvested. Tissue distribution and clearance were assessed by ALEXA647 or ALEXA750 fluorescence using an IVIS Lumina III Imaging System (Perkin Elmer). Bright-field (auto-exposure) and fluorescence imaging (ALEXA647 ex640, em670; or ALEXA750 ex740, em790 nm). Spectral unmixing and image analysis were performed as previously described (PMID: 30602661; Wilson et al., Cancers (Basel). 2018 Dec. 31; 11(1), E32). Background average radiant efficiency from vehicle-treated animals were subtracted from fluorescence measurements in each case, and the resulting data plotted for comparison.

[6] = Tissue distribution and clearance by fluorescence in mice without tumours; assay type: in vivo
From the text: Control mice received vehicle (PBS) alone.

B1: mAb AN-17: monoclonal anti-KRT14 antibody; heavy chain variable region SEQ ID NO:3, light chain variable region SEQ ID NO:5 (clone AN-17A RG4.E5b.A7.B4) (antibody, listed as Mus musculus, V domains shown)
VH: QVQLKESGPGLVAPSQSLSITCTVSGFSLSRYSVHWVRQPPGKGLEWLGMIWGGGSTDYNSALKSRLSISKDNSKSQVFLKMNSLQTDDTAMYYCARKDYGYSYFDYWGQGTTLTVSS
VL: DVLMTQTPLSLPVSLGDQASISCRSSQSIVHSNGNTYLEWYLQKPGQSPKLLIYKVSNRFSGVPDRFSGSGSGTDFTLKISRVEAEDLGVYYCFQGSHVPFTFGSGTKLEIKRADAAPTVS
wound closure / migration, NCI-H1573 [1]: failed to close the wound; also recorded: impaired | wound closure / migration, MDA-MB-468 [2]: failed to close the wound; also recorded: impaired | wound closure / migration, BT16 [3]: failed to close the wound; also recorded: impaired | cross-reactivity with protein antigens on arrays [4]: did not react with any of the proteins present on the arrays tested; also recorded: No cross-reactivity was evident | cross-reactivity with protein antigens on arrays ([4]; listed as mAB AN-17): did not react with any of the antigens present on the array, including several related keratin proteins | wound closure / migration, SJ-GBM2 [5]: failed to close the wound; also recorded: impaired | initial levels in tumour tissue vs reproductive tract of mice without tumours (ID8 ovarian tumour): 2 orders of magnitude | non-selective accumulation or retention in healthy tissues ([6]; doses from 0.5 mg/kg to 10 mg/kg i.p.): does not exhibit non-selective accumulation or retention in healthy tissues; also recorded: No non-specific retention | detectability in organs after 7 days ([6]; doses from 0.5 mg/kg to 10 mg/kg i.p., even at the highest dose): virtually undetectable in all organs after 7 days; also recorded: largely undetectable after 7 days | antibody-associated fluorescence in brain ([6]; single dose 0.5 mg/kg i.p.): no fluorescence was detected in brain | tissues with antibody-associated fluorescence ([6]; single dose 0.5 mg/kg i.p.): observed in intestine, reproductive organs, liver, kidney, spleen, lung and heart | specific accumulation / non-specific retention in healthy tissues vs isotype control ([6]; single dose 0.5 mg/kg i.p., 7 day period, 0.5 mg/kg): no specific accumulation; also recorded: no non-specific retention | clearance from organs by day 7 ([6]; single dose 0.5 mg/kg i.p., 0.5 mg/kg): largely cleared from all organs; also recorded: almost undetectable after 7 days
